Literature values, collected in article PMC4059559.

Key:
[1] = molecular target: His131 (UniProt position 131, WGVCTHLGCVP); test: other
[2] = molecular target: His152 (UniProt position 152, WFCPCHGSHYD); test: other
[3] = oxidised ISP (ISPox), isolated protein

For “Rieske iron-sulfur protein (ISP) of the cytochrome bc1 complex, isolated (Rhodobacter sphaeroides)”, the pKa [1, 3] is given as roughly 9.6, the pKa ([1]; reduced ISP (ISPH)) is given as ~12–13 and the pKa [2, 3] is given as roughly 7.6. The pKa ([2]; reduced ISP (ISPH)) was ~12–13.
